± gives the uncertainty stated by the source.
B1: Myocardin, residues 363 to 406; numbered along this chain, Q8IZQ8 (parent)
chain: KPGPLPPNLDDLKVSELRQQLRIRGLPVSGTKTALMDRLRPFQD
B2: Formin-binding protein 4, residues 200 to 261; numbered along this chain, Q8N3X1 (parent)
chain: SGWQYDTQCSLAGVGIEMGDWQEVWDENTGCYYYWNTQTNEVTWELPQYLATQVQGLQHYQP

Variants of: B1
Assay: abundance fitness (aPCA) (normalised: wild type 0, dead -1); higher = more abundant; growth selection in yeast, the domain comes from the species named
Conditions: Homo sapiens

Row | Variant | abundance fitness
1 | KPGPLPPNLDDLKVSELRQQLRIRGLPVSGTKTALMDRLRPFQG [D44G] | 0 ± 0.064
2 | KPGPLPPNLDDLKVSELRQQLRIRGLPVSGTKTALMDRLRPFQQ [D44Q] | -0.206 ± 0.18
3 | KPGPLPPNLDDLKVSELRQQLRIRGLPVSGTKTALMDRLRPFQK [D44K] | 0.195 ± 0.14
4 | KPGPLPPNLDDLKVSELRQQLRIRGLPVSGTKTALMDRLRPFQY [D44Y] | -0.379 ± 0.13
5 | KPGPLPPNLDDLKVSELRQQLRIRGLPVSGTKTALMDRLRPFQR [D44R] | -0.03 ± 0.2
6 | KPGPLPPNLDDLKVSELRQQLRIRGLPVSGTKTALMDRLRPFQF [D44F] | -0.325 ± 0.25
7 | KPGPLPPNLDDLKVSELRQQLRIRGLPVSGTKTALMDRLRPFQW [D44W] | -0.218 ± 0.34
8 | KPGPLPPNLDDLKVSELRQQLRIRGLPVSGTKTALMDRLRPFQL [D44L] | -0.494 ± 0.22
9 | KPGPLPPNLDDLKVSELRQQLRIRGLPVSGTKTALMDRLRPFQV [D44V] | 0.038 ± 0.13
10 | KPGPLPPNLDDLKVSELRQQLRIRGLPVSGTKTALMDRLRPFQN [D44N] | -0.236 ± 0.23
11 | KPGPLPPNLDDLKVSELRQQLRIRGLPVSGTKTALMDRLRPFQS [D44S] | -0.313 ± 0.15

Variants of: B2
Assay: as above
Conditions: Homo sapiens

Row | Variant | abundance fitness
12 | TGWQYDTQCSLAGVGIEMGDWQEVWDENTGCYYYWNTQTNEVTWELPQYLATQVQGLQHYQP [S1T] | 0.046 ± 0.098
13 | EGWQYDTQCSLAGVGIEMGDWQEVWDENTGCYYYWNTQTNEVTWELPQYLATQVQGLQHYQP [S1E] | 0.066 ± 0.31
14 | KGWQYDTQCSLAGVGIEMGDWQEVWDENTGCYYYWNTQTNEVTWELPQYLATQVQGLQHYQP [S1K] | 0.293 ± 0.15
15 | AGWQYDTQCSLAGVGIEMGDWQEVWDENTGCYYYWNTQTNEVTWELPQYLATQVQGLQHYQP [S1A] | 0.057 ± 0.11
16 | DGWQYDTQCSLAGVGIEMGDWQEVWDENTGCYYYWNTQTNEVTWELPQYLATQVQGLQHYQP [S1D] | 0.085 ± 0.41
17 | LGWQYDTQCSLAGVGIEMGDWQEVWDENTGCYYYWNTQTNEVTWELPQYLATQVQGLQHYQP [S1L] | -0.501 ± 0.11
18 | QGWQYDTQCSLAGVGIEMGDWQEVWDENTGCYYYWNTQTNEVTWELPQYLATQVQGLQHYQP [S1Q] | -0.673 ± 0.35
19 | CGWQYDTQCSLAGVGIEMGDWQEVWDENTGCYYYWNTQTNEVTWELPQYLATQVQGLQHYQP [S1C] | -0.068 ± 0.16
20 | VGWQYDTQCSLAGVGIEMGDWQEVWDENTGCYYYWNTQTNEVTWELPQYLATQVQGLQHYQP [S1V] | -0.052 ± 0.09
21 | RGWQYDTQCSLAGVGIEMGDWQEVWDENTGCYYYWNTQTNEVTWELPQYLATQVQGLQHYQP [S1R] | -0.236 ± 0.22
22 | IGWQYDTQCSLAGVGIEMGDWQEVWDENTGCYYYWNTQTNEVTWELPQYLATQVQGLQHYQP [S1I] | -0.222 ± 0.28
23 | YGWQYDTQCSLAGVGIEMGDWQEVWDENTGCYYYWNTQTNEVTWELPQYLATQVQGLQHYQP [S1Y] | -0.631 ± 0.2
24 | PGWQYDTQCSLAGVGIEMGDWQEVWDENTGCYYYWNTQTNEVTWELPQYLATQVQGLQHYQP [S1P] | -0.709 ± 0.2
25 | HGWQYDTQCSLAGVGIEMGDWQEVWDENTGCYYYWNTQTNEVTWELPQYLATQVQGLQHYQP [S1H] | -0.921 ± 0.38
26 | FGWQYDTQCSLAGVGIEMGDWQEVWDENTGCYYYWNTQTNEVTWELPQYLATQVQGLQHYQP [S1F] | -0.457 ± 0.14
27 | NGWQYDTQCSLAGVGIEMGDWQEVWDENTGCYYYWNTQTNEVTWELPQYLATQVQGLQHYQP [S1N] | -0.093 ± 0.18
28 | MGWQYDTQCSLAGVGIEMGDWQEVWDENTGCYYYWNTQTNEVTWELPQYLATQVQGLQHYQP [S1M] | 0.503 ± 0.11

Row | Variant | abundance fitness
29 | WGWQYDTQCSLAGVGIEMGDWQEVWDENTGCYYYWNTQTNEVTWELPQYLATQVQGLQHYQP [S1W] | -0.075 ± 0.17
30 | GGWQYDTQCSLAGVGIEMGDWQEVWDENTGCYYYWNTQTNEVTWELPQYLATQVQGLQHYQP [S1G] | 0.116 ± 0.11
31 | SGKQYDTQCSLAGVGIEMGDWQEVWDENTGCYYYWNTQTNEVTWELPQYLATQVQGLQHYQP [W3K] | 0.138 ± 0.083
32 | SGGQYDTQCSLAGVGIEMGDWQEVWDENTGCYYYWNTQTNEVTWELPQYLATQVQGLQHYQP [W3G] | -0.275 ± 0.058
33 | SGSQYDTQCSLAGVGIEMGDWQEVWDENTGCYYYWNTQTNEVTWELPQYLATQVQGLQHYQP [W3S] | 0.127 ± 0.058
34 | SGRQYDTQCSLAGVGIEMGDWQEVWDENTGCYYYWNTQTNEVTWELPQYLATQVQGLQHYQP [W3R] | -0.202 ± 0.058
35 | SGCQYDTQCSLAGVGIEMGDWQEVWDENTGCYYYWNTQTNEVTWELPQYLATQVQGLQHYQP [W3C] | -0.097 ± 0.083
36 | SGDQYDTQCSLAGVGIEMGDWQEVWDENTGCYYYWNTQTNEVTWELPQYLATQVQGLQHYQP [W3D] | -0.019 ± 0.1
37 | SGPQYDTQCSLAGVGIEMGDWQEVWDENTGCYYYWNTQTNEVTWELPQYLATQVQGLQHYQP [W3P] | -0.158 ± 0.08
38 | SGMQYDTQCSLAGVGIEMGDWQEVWDENTGCYYYWNTQTNEVTWELPQYLATQVQGLQHYQP [W3M] | 0.046 ± 0.068
39 | SGQQYDTQCSLAGVGIEMGDWQEVWDENTGCYYYWNTQTNEVTWELPQYLATQVQGLQHYQP [W3Q] | 0.157 ± 0.086
40 | SGFQYDTQCSLAGVGIEMGDWQEVWDENTGCYYYWNTQTNEVTWELPQYLATQVQGLQHYQP [W3F] | 0.156 ± 0.09
41 | SGVQYDTQCSLAGVGIEMGDWQEVWDENTGCYYYWNTQTNEVTWELPQYLATQVQGLQHYQP [W3V] | 0.054 ± 0.053
42 | SGEQYDTQCSLAGVGIEMGDWQEVWDENTGCYYYWNTQTNEVTWELPQYLATQVQGLQHYQP [W3E] | -0.376 ± 0.11
43 | SGYQYDTQCSLAGVGIEMGDWQEVWDENTGCYYYWNTQTNEVTWELPQYLATQVQGLQHYQP [W3Y] | 0.012 ± 0.14
44 | SGHQYDTQCSLAGVGIEMGDWQEVWDENTGCYYYWNTQTNEVTWELPQYLATQVQGLQHYQP [W3H] | -0.296 ± 0.1

Source: the Human Domainome abundance scans (Beltran et al. 2025)
